Test system: disulfide cyclized peptide Mpa-Tyr-II-Pro-Mea

thrombin
thrombin activity in screen at compound concentration of around 10 µM (fluorogenic substrate): reduced the thrombin activity 52%

From US20240279845
